Laboratory results from patent publication US20180118848A1 (Regeneron, published 2018).
Where a chain is given by its changes, count along the chain named. Numbers in names are those of the source.

B1: H3M9524N (antibody, mouse IgG3, V domains shown)
VH: QVQLQQWGAGLLKPSETLSLTCAVYGGSFSDYYWSWIRQPPGKGLEWIGEINHRGKTNYNPSLKSRVSISVDPSKNQFSLKLSSVTAADTAVYYCARQGWNYAIFDYWGQGILVPVSS
VL: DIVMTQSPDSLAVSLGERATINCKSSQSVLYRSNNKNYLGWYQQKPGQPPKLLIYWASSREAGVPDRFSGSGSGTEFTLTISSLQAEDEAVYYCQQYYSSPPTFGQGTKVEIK
notes: Human variable regions, mouse IgG3 constant region
B2: H1H9524N (antibody, human IgG1, V domains shown)
VH: B1 VH
VL: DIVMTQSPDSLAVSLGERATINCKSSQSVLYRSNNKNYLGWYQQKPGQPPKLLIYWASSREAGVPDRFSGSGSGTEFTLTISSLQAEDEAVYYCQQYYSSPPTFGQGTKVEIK
notes: Human IgG1 form of H3M9524N
B3: H3M9525N (antibody, mouse IgG3, V domains shown)
VH: B1 VH with D31G, R54S, N58T, N60S, S68T, P73T, N76S, W100L, I112T, P115T
VL: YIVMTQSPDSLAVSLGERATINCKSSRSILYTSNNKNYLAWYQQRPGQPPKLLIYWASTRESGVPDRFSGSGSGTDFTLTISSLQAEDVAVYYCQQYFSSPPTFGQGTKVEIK
notes: as for B1
B4: H1H9525N (antibody, human IgG1, V domains shown)
VH: B1 VH with D31G, R54S, N58T, N60S, S68T, P73T, N76S, W100L, I112T, P115T
VL: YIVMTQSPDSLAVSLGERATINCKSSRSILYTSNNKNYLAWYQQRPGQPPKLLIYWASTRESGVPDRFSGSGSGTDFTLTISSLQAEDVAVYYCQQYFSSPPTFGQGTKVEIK
notes: Human IgG1 form of H3M9525N
B5: H2M9538N (antibody, V domains shown)
VH: QVQLQESGPGLVKPSETLSLTCTVSGGSISSYYWSWIRQPPGKGLEWIGYIYYSGSTNYNPSLKSRVTISVDTSKNQFSLKLSSVTAADTAVYYCARKKLVFDYWGQGTLVTVSS
VL: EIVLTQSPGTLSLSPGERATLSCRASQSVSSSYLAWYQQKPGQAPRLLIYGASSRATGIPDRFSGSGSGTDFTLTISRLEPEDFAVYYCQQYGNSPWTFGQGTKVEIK
B6: H1H9538N (antibody, V domains shown)
VH: B5 VH
VL: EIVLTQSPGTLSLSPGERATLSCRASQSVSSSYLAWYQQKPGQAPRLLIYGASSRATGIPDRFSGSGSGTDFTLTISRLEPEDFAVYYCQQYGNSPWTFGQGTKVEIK
B7: H3M9529N (antibody, mouse IgG3, V domains shown)
VH: QVQLQQWGAGLLKPSETLSLTCAVYGGSFSGFYWSWIRQPPGKGLEWIGEINHSGSAKYNPSLKNRVIISIDTSKNQFSLKLDSVTAADTAVYNCARQGWNFAIFDYWGQGTLVDVSS
VL: DIVMTQSPDSLAVSLGGRATINCKSSQSVLHSSYNKDHLAWYQQRPGQPPKLLIYWASTRESGVPDRFSGSGSGTDFTLTISSLQAEDVAVYYCQQYNILPPTFGQGTRVEIK
notes: as for B1
B8: H1H9529N (antibody, human IgG1, V domains shown)
VH: B7 VH
VL: B7 VL
notes: Human IgG1 form of H3M9529N
B9: BSMUC16/CD3-002 (bispecific antibody, V domains shown)
VH 1: QVQLVESGGGLVKPGGSLRLSCAASGFTFSNYYMSWVRQAPGKGLEWISYISGRGSTIFYADSVKGRITISRDNAKNSLFLQMNSLRAEDTAVYFCVKDRGGYSPYWGQGTLVTVSS
VH 2: EVQLVESGGGLVQPGRSLRLSCAASGFTFDDYSMHWVRQAPGKGLEWVSGISWNSGSIGYADSVKGRFTISRDNAKNSLYLQMNSLRAEDTALYYCAKDGSGYGKFYYYGMDVWGQGTTVTVSS
VL: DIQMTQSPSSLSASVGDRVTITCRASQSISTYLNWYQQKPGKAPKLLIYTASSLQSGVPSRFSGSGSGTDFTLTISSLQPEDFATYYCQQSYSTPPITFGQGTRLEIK
notes: Anti-MUC16 HCVR of H1H8767P, anti-CD3 HCVR CD3-VH-G5, common light chain of H1H8767P; also called anti-MUC16xCD3 bispecific antibody with CD3-VH-G5 arm
B10: H2M7138N (antibody, mouse IgG2, V domains shown)
VH: QVQLVQSGAEVKKPGASVKVSCKASGYTFTSSDINWVRQATGQGLEWVGWMNPNYGYTGSARKFQDRVTMTRNTSLSTAYLELHSLRSEDTAVYYCARVTYCSSVTSCFRPFTYWGQGTLVTVSA
VL: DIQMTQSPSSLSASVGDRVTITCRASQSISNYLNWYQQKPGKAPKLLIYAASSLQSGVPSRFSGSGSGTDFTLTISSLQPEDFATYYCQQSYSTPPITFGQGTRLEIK
notes: Human variable regions, mouse IgG2 constant region; also called H2aM7138N
B11: H2M7135N (antibody, mouse IgG2, V domains shown)
VH: EVQLVESGGGLVQAGGSLRLSCAASGFTFSYHEMNWVRQAPGKGLEWVSYIGSRGTTKHYADPVKGRFTISRDNAKNSLYLQMNSLRAEDTAVYYCASEVGSILGYSMDVWGQGTTVTVSS
VL: DIQMTQSPSSLSASVGDRVTITCRASQSVSRYLNWCQQKPGKAPKLLTYAASSLQSGVPSRFSGSGSGTDFTLTISSLQPEDFAAYFCQQSYSTPPITFGQGTRLEIK
notes: Human variable regions, mouse IgG2 constant region
B12: H1H8770P (antibody, human IgG1, V domains shown)
VH: QVQLVESGGGVVQPGRSLRLSCAASGFTFSDHGMHWVRQAPGKGLEWVAVISYHGSNKHYADSVKGRFTISRDNSKNALYLQMNSLRPEDTAMYYCAKDGYDFWNGYSLFDYWGQGTLVTVSS
VL: B11 VL with V29I, R31N, C36Y, T48I, A50T, S53N, Q55L, A85T, F87Y, R104K
notes: Human IgG1
B13: H1H8783P (antibody, human IgG1, V domains shown)
VH: B12 VH with G33A, S56T, N57D, H59Q, A61G, G106A
VL: B11 VL with V29I, R31N, C36Y, T48I, A50T, Q55L, A85T, F87Y
notes: Human IgG1
B14: H1H8755P (antibody, human IgG1, V domains shown)
VH: EVQLVESGGGLVQPGRSLRLSCAASGFTFNDYAMHWVRQSPGKGLEWVSGIDWNGGSIDYADSVKGRFTISRDTAKNSLYLQMNSLKVEDTALYYCAKDIGHWNYIGGMDVWGQGTTVTVSS
VL: DIQMTQSPSSLSASVGDRVTITCRASQSINIYLNWYQQKPGKAPKFLIYAASSLQTGVPSRFSGSGSGTDFTLTISSLEPEDFATYYCQHSYSTPPITFGQGTRLEIK
notes: Human IgG1 (H1H: hIgG1)
B15: H1H8794P (antibody, V domains shown)
VH: QVQLVESGGGLVKPGGSLRLSCAASGFTFRDYSMSWIRQAPGKGLEWVSYVTFFNSAIYYADSVKGRFTISRDNAKNSLYLQMNSLRAEDTAVYYCAREREPIVGGFDYWGQGTLVTVSS
VL: B14 VL with I31S, F46L, T56G, S65G, S76T, E79Q, Y86F, H90Q, T94S
notes: Human IgG1
B16: H1H8790P (antibody, human IgG1, V domains shown)
VH: EVQLVESGGGLVQPGGSLRLSCEASGFTFSNYAMSWVRQAPGKGLEWVSGMSGSGTYPYYADSVKGRFTISRDNSKNMLYLQMNSLRVKDTAVYYCAKDGVDTAMILDTFDLWGQGTMVTVSS
VL: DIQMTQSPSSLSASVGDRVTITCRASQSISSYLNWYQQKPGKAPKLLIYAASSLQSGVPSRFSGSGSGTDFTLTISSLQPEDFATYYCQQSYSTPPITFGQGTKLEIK
notes: Human IgG1
B17: H1M9528N (antibody, mouse IgG1, V domains shown)
VH: QMQLQESGPGLVKPSETLSLTCTVSGGSISSYYWNWIRQPPGKGLEWIGYIYYSGNNFNPSLKSRVTISVDTSKNQFSLKLSSVTAADTAVYYCARAFHWNYEFDYWGQGTLVTVSS
VL: EIVLTQSPGTLSLSPGERATLSCRASQSVSNNYLAWYQQKPGQAPRLLLYGASSRTTDIPDRFSGSGSGTDFTLTISRLEPEDFAVYYCQQYDNSPLTFGGGTKVEIR
notes: Human variable regions, mouse IgG1 constant region
B18: H1H9528N (antibody, human IgG1, V domains shown)
VH: B17 VH
VL: B17 VL
notes: Human IgG1 form of H1M9528N
B19: H1M7137N (antibody, mouse IgG1, V domains shown)
VH: QVQLQESGPGLVKPSETLSLTCTVSGGAINTYYWSWIRQPPGKGLEWIGYIYYRGNTNYNPSLRSRVTISVDTSKNQFFLKLRSVTVADSAVYFCARGWNYRAEYFQHWGQGTVVTVSS
VL: not shown
notes: as for B17

What was measured:
human MUC16 (mucin 16) [1] = biological target: T1, human MUC16 (mucin 16) (human); test: MSD ECL cell binding, RLU ratio OVCAR-3 vs SK-OV-3, 16.7 nM Ab
T1 construct: Endogenously expressed on human tumour cell lines; also called hMUC16
Method: (§1) The ability of anti-MUC16 antibodies to bind specifically to endogenously expressing MUC16 on the human ovarian carcinoma cell line (OVCAR-3) was evaluated via an electrochemiluminescence based detection assay (Meso Scale Discovery (MSD), Rockville, Md.). […] Detached cells were then washed once in 1×PBS supplemented with Ca²⁺/Mg²⁺ and counted (Cellometer Auto T4 cell counter, Nexcelom Bioscience, Lawrence, Mass.). Approximately 1.0×10⁴ cells were plated in MULTI-ARRAY 96-well carbon electrode plates (MSD) and incubated for 1 h at 37° C. […] Next, serial dilutions of anti-MUC16 or control antibodies (0.85 pM-50 nM) and no-antibody buffer controls were added to the plate-bound cells and incubated for 1 h at room temperature (RT). Plates were then washed to remove the unbound antibodies using an AquaMax2000 plate washer (MDS Analytical Technologies, Sunnyvale, Calif.). Plate-bound antibodies were detected with a SULFO-TAG™-conjugated anti-human kappa light chain antibody (Regeneron) or a SULFO-TAG™-conjugated anti-mouse IgG antibody (Jackson Immunoresearch, West Grove, Pa.) for 1 h at RT. Post-wash, plates were developed with Read Buffer (MSD) according to manufacturer's protocol and luminescent signals were recorded with a SECTOR Imager 6000 (MSD) instrument.
(§2) Luminescence intensity, measured in relative light units (RLU), for the two cell lines was recorded to indicate the binding intensity of each antibody.

human MUC16 (mucin 16) [2] = biological target: T1, human MUC16 (mucin 16); test: MSD ECL cell binding, RLU ratio OVCAR-3 vs SK-OV-3, 1.9 nM Ab
Method: as §1, §2

human MUC16 (mucin 16) [3] = biological target: T1, human MUC16 (mucin 16); test: cell-based or functional assay
human MUC16 (mucin 16) [4] = biological target: T1, human MUC16 (mucin 16); test: FACS binding titration on PEO-1 (MUC16+) cells
Method: A. Briefly, flow cytometric analysis (i.e. fluorescence-activated cell sorting, or FACS) was utilized to determine binding of bispecific antibodies to Jurkat cells or cells expressing human MUC16, followed by detection with a phycoerythrin (PE)-labeled or APC-labeled anti-human IgG antibody. […] After incubation, the cells were washed twice with cold PBS containing 1% filtered FBS and a PE-conjugated or APC-conjugated anti-human secondary antibody was added to the cells and incubated for an additional 30 minutes. Wells containing no antibody or secondary only were also used as controls. After incubation, cells were washed, re-suspended in 200 μL cold PBS containing 1% filtered FBS and analyzed by flow cytometry on a BD FACS Canto II.
B. In separate experiments with analogous conditions to that described above, flow cytometric analysis (or FACS) was utilized to determine binding of select bispecific antibodies to Jurkat cells, PEO-1, OVCAR3-Luc and cynomolgus T cells. For the titration analysis, serial dilution of selected MUC16×CD3 bispecific antibodies, a first isotype control antibody (a human chimeric IgG4 antibody that binds an irrelevant human antigen with no cross-reactivity to human or cynomolgus CD3) and a second isotype control antibody (a human chimeric IgG4 antibody that binds an irrelevant human antigen with no cross-reactivity to human MUC16), ranging from 66.6 nM to 0.001 nM.
For FACS analysis, cells were gated by forward scatter height vs. forward scatter area for single events selection, followed by side and forward scatters. The EC50 for cell binding titration was determined using PRISM™ software (GraphPad Software, Inc., La Jolla, Calif.). Values were calculated using 4-parameter non-linear regression analysis. (Liu, J., et al. 2005, Biotechnol Letters 27:1821-1827).

human MUC16 (mucin 16) [5] = biological target: T1, human MUC16 (mucin 16); test: cell-based or functional assay; remark: listed apart in the source
human MUC16 (mucin 16) [6] = biological target: T1, human MUC16 (mucin 16); test: FACS binding titration on OVCAR3 (MUC16+) cells

| Binder | Ratio anti-MUC16 Binding OVCAR-3/SK-OV-3 (human MUC16 (mucin 16) [1]) [ratio] | Ratio anti-MUC16 Binding OVCAR-3/SK-OV-3 (human MUC16 (mucin 16) [2]) [ratio] | PEO-1 cell depletion EC50 (human MUC16 (mucin 16) [3]) [pM] | EC50 (human MUC16 (mucin 16) [4]) [nM] | OVCAR3 cell depletion EC50 (human MUC16 (mucin 16) [5]) [pM] | EC50 (human MUC16 (mucin 16) [6]) [nM] |
| --- | --- | --- | --- | --- | --- | --- |
| B1 | 57 | 81 |  |  |  |  |
| B2 | 48 | 20 |  |  |  |  |
| B3 | 51 | 137 |  |  |  |  |
| B4 | 21 | 4 |  |  |  |  |
| B5 | 26 | 89 |  |  |  |  |
| B6 | 13 | 12 |  |  |  |  |
| B7 | 99 | 143 |  |  |  |  |
| B8 | 74 | 109 |  |  |  |  |
| B9 |  |  | 67.5 | 3.13 | 30.6 | 2.69 |
| B10 | 50 | 82 |  |  |  |  |
| B11 | 5 | 30 |  |  |  |  |
| B12 | 3 | 9 |  |  |  |  |
| B13 | 4 | 11 |  |  |  |  |
| B14 | 5 | 13 |  |  |  |  |
| B15 | 3 | 8 |  |  |  |  |
| B16 | 3 | 8 |  |  |  |  |
| B17 | 120 | 153 |  |  |  |  |
| B18 | 18 | 41 |  |  |  |  |
| B19 | 29 | 77 |  |  |  |  |
